Measurements from article PMC9877181.

System: CCCC(=O)Oc1ccc([N+](=O)[O-])cc1
Test: purified protein
Conditions: 50 mM Tris-HCl pH 8, 10 μM enzyme, no α-CD

For EstG (Caulobacter vibrioides NA1000), the Km was 11.2 mM.
